Experiment [1] has as its target T1, Human CD137 ectodomain containing four CRDs (crystallization construct) (human, UniProt Q07011 24-162).
T1 construct: Expressed with a C-terminal TEV site and Fc tag; the Fc tag was cut off
T1 chain: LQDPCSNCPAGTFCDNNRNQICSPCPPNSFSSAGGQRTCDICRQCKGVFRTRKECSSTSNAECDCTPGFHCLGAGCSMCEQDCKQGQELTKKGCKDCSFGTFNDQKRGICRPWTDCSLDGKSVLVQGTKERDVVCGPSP
As to the kind of experiment: complex purified by gel filtration and crystallized. (In general: In gel filtration, larger molecules generally elute earlier.)
Protocol: The complex was then further purified by gel filtration in buffer (20 mM Tris pH 8.0, 100 mM NaCl) using a HiLoad 16/600 Superdex™ 75 pg column (GE Healthcare Life Sciences). […] Crystals cryoprotected with stepwise 5% D-(+)-Sucrose to a final 20% concentration were flash frozen in liquid nitrogen. […] Crystal was cryoprotected with 7% glycerol and flash frozen in liquid nitrogen. The X-ray diffraction data was collected at beamline BL45XU at Spring-8 synchrotron radiation facility (Hyogo, Japan).

For the next experiment, the target named is T2, human CD137 ECD-mIgG2a (human).
T2 construct: Human CD137 AA 24-183 fused to mouse IgG2a Fc; also called huCD137
As to the kind of experiment: competition ELISA on coated human CD137 ECD-mIgG2a: BGA-5623 (IgG4 Fc) detected with anti-human IgG-HRP in the presence of serially diluted human CD137 ligand ECD-mIgG2a. A general note: In an ELISA, binding on a coated surface is turned into a signal by an enzyme label.

For a further experiment, the target named is T3, TNFRSF1A(CD120a) (UniProt P19438 30-211, limits assumed).
T3 construct: Bought protein
T3 sequence (looked up): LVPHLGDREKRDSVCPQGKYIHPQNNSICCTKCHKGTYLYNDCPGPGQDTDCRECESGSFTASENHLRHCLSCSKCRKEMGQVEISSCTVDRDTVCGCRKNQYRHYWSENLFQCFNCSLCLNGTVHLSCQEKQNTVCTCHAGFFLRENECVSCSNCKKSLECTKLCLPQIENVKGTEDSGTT
Briefly: ELISA, antigens coated at 10 ug/ml; antibody concentration not given.

The target of another experiment is T4, TNFRSF1B(CD120b) (UniProt P20333 23-257).
T4 construct: Bought protein
T4 sequence (looked up): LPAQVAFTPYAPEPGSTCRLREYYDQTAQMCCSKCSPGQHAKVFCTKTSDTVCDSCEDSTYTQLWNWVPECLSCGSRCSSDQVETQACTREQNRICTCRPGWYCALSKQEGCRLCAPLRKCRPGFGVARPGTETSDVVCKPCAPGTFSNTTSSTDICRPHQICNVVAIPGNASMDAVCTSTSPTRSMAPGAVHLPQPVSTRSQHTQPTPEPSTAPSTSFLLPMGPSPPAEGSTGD
The description is as above.

A further experiment deals with T5, human CD40 ECD-mIgG2a (human).
T5 construct: also called huCD40; TNFRSF5(CD40)
The experiment is described as above.

Another experiment has as its target T6, human OX40 ECD-His (human, UniProt P43489 29-216).
T6 construct: also called human OX40-his; huOX40
T6 sequence: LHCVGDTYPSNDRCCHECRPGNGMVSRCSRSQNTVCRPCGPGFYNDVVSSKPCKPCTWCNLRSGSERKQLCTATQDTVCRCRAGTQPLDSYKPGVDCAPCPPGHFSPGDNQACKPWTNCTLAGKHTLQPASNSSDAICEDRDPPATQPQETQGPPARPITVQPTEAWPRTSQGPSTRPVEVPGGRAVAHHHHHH
The experiment is described as above.

T5 sequence (chain, as listed by the source limits assumed): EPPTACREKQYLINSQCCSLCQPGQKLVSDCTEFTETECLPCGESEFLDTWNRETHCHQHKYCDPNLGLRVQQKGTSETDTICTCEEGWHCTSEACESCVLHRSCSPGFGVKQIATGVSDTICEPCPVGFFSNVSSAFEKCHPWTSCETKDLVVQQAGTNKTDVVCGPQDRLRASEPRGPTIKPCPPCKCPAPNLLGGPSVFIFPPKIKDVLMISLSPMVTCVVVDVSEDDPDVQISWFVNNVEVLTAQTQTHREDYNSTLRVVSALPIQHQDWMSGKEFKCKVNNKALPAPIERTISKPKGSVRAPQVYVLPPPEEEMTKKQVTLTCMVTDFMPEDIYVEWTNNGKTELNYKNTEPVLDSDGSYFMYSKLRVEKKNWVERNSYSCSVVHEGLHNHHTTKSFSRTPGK

B1: VH (BGA-5623) (VHH)
VHH: EVQLLESGGGLVQPGGSLRLSCAASGFTVSAEDVGWVRQAPGKGLEWVSAILDKGGSTYYAESVKGRFTISRDNAKNTLYLQMSSLRAEDTAVYYCARIVYHAGGGVTFDTRGQGTQVTVSS
notes: Human VH single domain made in E. coli with an N-terminal HIS-MBP tag removed by TEV protease
With B1, in experiment [1], the binding result is “binds”.

B2: human CD137 ligand-mIgG2a (Fc fusion)
chain: EPRGPTIKPCPPCKCPAPNLLGGPSVFIFPPKIKDVLMISLSPIVTCVVVDVSEDDPDVQISWFVNNVEVHTAQTQTHREDYNSTLRVVSALPIQHQDWMSGKEFKCKVNNKDLPAPIERTISKPKGSVRAPQVYVLPPPEEEMTKKQVTLTCMVTDFMPEDIYVEWTNNGKTELNYKNTEPVLDSDGSYFMYSKLRVEKKNWVERNSYSCSVVHEGLHNHHTTKSFSRTPGKGGGGSREGPELSPDDPAGLLDLRQGMFAQLVAQNVLLIDGPLSWYSDPGLAGVSLTGGLSYKEDTKELVVAKAGVYYVFFQLELRRVVAGEGSGSVSLALHLQPLRSAAGAAALALTVDLPPASSEARNSAFGFQGRLLHLSAGQRLGVHLHTEARARHAWQLTQGATVLGLFRVTPEIPAGLPSPRSE
notes: also called human CD137 ligand ECD-mIgG2a; huCD137 ligand
For the molecule B2, the “IC50 (read off the curve)” value with human CD137 ECD-mIgG2a is ~2 µg/mL.

B3: Urelumab analog (antibody, human IgG4 S228P, kappa, V domains shown)
VH: QVQLQQWGAGLLKPSETLSLTCAVYGGSFSGYYWSWIRQSPEKGLEWIGEINHGGYVTYNPSLESRVTISVDTSKNQFSLKLSSVTAADTAVYYCARDYGPGNYDWYFDLWGRGTLVTVSS
VL: EIVLTQSPATLSLSPGERATLSCRASQSVSSYLAWYQQKPGQAPRLLIYDASNRATGIPARFSGSGSGTDFTLTISSLEPEDFAVYYCQQRSNWPPALTFGGGTKVEIKR
notes: also called Urelumab analog antibody
Take B3: the binding result in the experiment with TNFRSF1A(CD120a), in the experiment with TNFRSF1B(CD120b), with human CD40 ECD-mIgG2a and with human OX40 ECD-His was “no binding” in each case.

The values above are taken from US20240209113A1 (BEIGENE SWITZERLAND, published 2024).
